From publication PMC6611741 (2019)

Biological target: Bovine serum albumin (Bos taurus (Bovine), UniProt P02769)
Assay: EGOTFT (SiMoT), BSA-functionalized gate

Chain of Bovine serum albumin (P02769 25-607): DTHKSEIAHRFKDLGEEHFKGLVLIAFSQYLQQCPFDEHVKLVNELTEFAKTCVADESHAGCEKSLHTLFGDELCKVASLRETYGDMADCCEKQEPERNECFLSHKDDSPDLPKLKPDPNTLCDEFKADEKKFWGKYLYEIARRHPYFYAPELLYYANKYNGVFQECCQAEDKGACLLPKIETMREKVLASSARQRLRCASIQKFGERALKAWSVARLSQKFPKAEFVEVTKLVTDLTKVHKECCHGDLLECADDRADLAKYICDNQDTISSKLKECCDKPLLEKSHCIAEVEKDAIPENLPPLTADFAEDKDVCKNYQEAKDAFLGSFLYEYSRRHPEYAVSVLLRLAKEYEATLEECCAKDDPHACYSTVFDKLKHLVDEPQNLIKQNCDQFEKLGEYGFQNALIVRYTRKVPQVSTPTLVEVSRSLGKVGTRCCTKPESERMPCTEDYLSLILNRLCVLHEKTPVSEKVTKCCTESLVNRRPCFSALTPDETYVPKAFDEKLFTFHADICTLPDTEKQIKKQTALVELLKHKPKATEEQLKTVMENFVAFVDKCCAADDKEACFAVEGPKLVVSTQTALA

binding result: no binding
B1: Human C-reactive protein (protein)
chain: QTDMSRKAFVFPKESDTSYVSLKAPLTKPLKAFTVCLHFYTELSSTRGYSIFSYATKRQDNEILIFWSKDIGYSFTVGGSEILFEVPEVTVAPVHICTSWESASGIVEFWVDGKPRVRKSLKKGYTVGAEASIILGQEQDSFGGNFEGSQSLVGDIGNVNMWDFVLSPDEINTIYLGGPFSPNVLNWRALKYEVQGEVFTKPQLWP
